The target in the assay is HAdV-D26 fiber knob protein (human adenovirus type 26 (HAdV-D26)). The assay can be described thus: crystal structure; HAdV-D26K crystals (PACT Premier B01 and B04, pH 4.0 and pH 8.0) soaked in 10 mM Neu5Ac; cubic space group, biological trimer assembled from it.

This passage reports stoichiometry N results from publication PMC6726447.

As a reminder, the stoichiometry N is the number of molecules, sites or subunits per partner or assembly. “HAdV-D26 fiber knob protein (domain or fragment)” returned a stoichiometry N of 3.
